The record followed here is patent publication US12617830B2, “Analogues of PYY” (IP2IPO Innovations Limited, priority 2017, dated 2026).

Test [1] concerns the target T1, human Neuropeptide Y Receptor Y2 (Homo sapiens, UniProt P49146).
T1 construct: host or cells: CHO-K1
T1 sequence (P49146 1-381): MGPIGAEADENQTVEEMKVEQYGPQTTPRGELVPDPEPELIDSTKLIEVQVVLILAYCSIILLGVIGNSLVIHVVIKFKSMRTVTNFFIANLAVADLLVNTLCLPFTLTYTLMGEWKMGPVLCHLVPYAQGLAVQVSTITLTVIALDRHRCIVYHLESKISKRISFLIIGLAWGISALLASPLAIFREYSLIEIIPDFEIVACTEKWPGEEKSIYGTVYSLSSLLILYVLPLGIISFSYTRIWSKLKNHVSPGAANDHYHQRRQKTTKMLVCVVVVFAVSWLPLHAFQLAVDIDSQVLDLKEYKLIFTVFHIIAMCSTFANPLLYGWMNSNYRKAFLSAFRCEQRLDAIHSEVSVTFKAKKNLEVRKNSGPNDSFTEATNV
Put plainly: In vitro receptor potency: inhibition of forskolin-stimulated cAMP in hY2 CHO-K1 cells. The class given is cell-based. Particulars: for Average ratio to PYY2-36 ± SEM: ratio of example compound EC50 to PYY2-36 EC50, cAMP, hY2 CHO-K1 cells (DiscoverX), 0.02 mM forskolin, 30 minutes. The procedure:
DiscoverX® hY2 CHO-K1 cells (10,000 cells per well (96 well plate)) were resuspended in media containing 0.2 mM IBMX and 0.02 mM forskolin (which stimulates cAMP production) and test peptides at a range of concentrations, for 30 minutes. The reaction stopped by lysing the cells and cAMP quantified 60 minutes later using Cisbio cAMP dynamic 2 kit.
Ten thousand cells per well (96 well plate) were resuspended in media containing 0.2 mM IBMX and 0.02 mM forskolin (which stimulates cAMP production) and test peptides at a range of concentrations, for 30 minutes. The reaction stopped by lysing the cells and cAMP quantified 60 minutes later using Cisbio cAMP dynamic 2 kit.

In test [2] the test system is overnight fasted male Wistar rats. Put plainly: Rat feeding experiment, single subcutaneous injection, food intake and body weight monitored for 6 days. Format: in vivo. Particulars: single subcutaneous injection of peptide in saline vs control saline; monitored for following 6 days; FIGS. 3A-3D, 4A-4D. From the text:
Animals were randomised into treatment groups, with stratification by body weight.

Ends that are not written are not given here.

On to “Y1518: example PYY analogue peptide; sequence given in FIGS. 1A-1D (PIKPEAPGEGASPEELLHYYAALRHFLNHLTRQRY-NH2) [Peptide Y1518]”, for which the “Average ratio to PYY2-36 ± SEM” value in test [1] is recorded as 1.7 ± 0.13.
Same read-out and setting: under “Y1421: example PYY analogue peptide; sequence given in FIGS. 1A-1D (PIKPEAPGQGASPEELLHYYAALRHFLNHVTRQRY-NH2) [Peptide Y1421]” stands 0.9 ± 0.09.
On to “Pro-Ile-Lys-Pro-Glu-Ala-Pro-Gly-Glu-Gly-Ala-Ser-Pro-Glu-Glu-Leu-Leu-His-Tyr-Tyr-Ala-Ala-Leu-Arg-His-Phe-Leu-Asn-His-Val-Thr-Arg-Gln-Arg-Tyr-NH2 (PIKPEAPGEGASPEELLHYYAALRHFLNHVTRQRY-NH2) [Peptide Y1419]”, for which the “ability to inhibit forskolin production (potency compared with Y242)” value in test [1] (hY2 CHO-K1 cells, compared with previous generation compound Y242, FIG. 2) was “much more potent inhibitor than the previous generation of preferred compounds”. The “Average ratio to PYY2-36 ± SEM” value in test [1] came out at 0.8 ± 0.16. For the same substance, the “reductions in food intake and body weight” value in test [2] was “a single initial dose is still active at 160 hours after administration”.
